In this assay the target is Adeno-associated virus type 2 (AAV2) capsid viral protein VP3 (adeno-associated virus type 2). As to the kind of experiment: cryo-EM structure.

“Adeno-associated virus type 2 (AAV2) capsid viral protein VP3 (natural protein)” yielded a stoichiometry N of 60.
